In article PMC8172134:

Molecular target: SARS-CoV-2 spike prefusion stabilized ectodomain trimer (SARS-CoV-2) (UniProt P0DTC2)
Test: cryo-EM structure

47D11 Fab fragment was tested, and the stoichiometry N (Fab per spike trimer) was 2.
